Data reported in the supplement of paper PMC10724198.
± gives the standard deviation of the averaged measurements.

Test system: Saccharomyces cerevisiae
Test: protein stability index of tFT-peptide fusion (C-terminal peptide) (PSI (0-1 scale)); higher = more stable (slower turnover)
Settings: genetic background: wild type; temperature: 30 C
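Further: PSI is a weighted mean of sequencing reads over stability bins, variants kept only with over 10 reads, mCherry proximal and sfGFP distal, peptide attached via GGGS linker.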

Sequence	protein stability index
PPLRLASSPPPV	0.736 ± 0.062
PPLSCSPPLAPL	0.695 ± 0.019
PPLSLPSSCPSP	0.652 ± 0.1
PPLSPLSPLAPP	0.712 ± 0.038
PPLTPPPPTPPP	0.635 ± 0.057
PPLTPSPPRSFP	0.651 ± 0.08
PPNLYRGVQGPA	0.682 ± 0.0099
PPNPLPPAFTPP	0.715 ± 0.027
PPNPPPGPTVPF	0.768 ± 0.084
PPPALEPSPKEL	0.781 ± 0.057
PPPAPPPAIPHP	0.687 ± 0.0073
PPPAPPTFPLRS	0.684 ± 0.087
PPPAPRRTRRPS	0.698 ± 0.047
PPPARLSLPPPD	0.694 ± 0.007
PPPASRPPHPTL	0.746 ± 0.026
PPPFLTPPPPHS	0.709 ± 0.026
PPPFPLLPRYGF	0.657 ± 0.066
PPPFPPAPRHPP	0.614 ± 0.013
PPPFPPPTLPPP	0.736 ± 0.039
PPPFSPLPPGPP	0.699 ± 0.0077
PPPGPDGVASNF	0.685 ± 0.053
PPPHPPRRLLPP	0.69 ± 0.065
PPPHPRPSPPSP	0.702 ± 0.048
PPPHRPWSPVPP	0.7158 ± 0.0034
PPPISTLSSSPS	0.582 ± 0.059
PPPKAPHSSPNL	0.675 ± 0.072

Sequence	protein stability index
PPPLASRLLSFL	0.713 ± 0.022
PPPLHPRYDPPA	0.685 ± 0.025
PPPLLAPHPPPP	0.697 ± 0.01
PPPLLPFPPIPR	0.697 ± 0.033
PPPLPFPPSPPL	0.681 ± 0.063
PPPLPLSTPPPL	0.671 ± 0.014
PPPLPPPPPLPP	0.589 ± 0.038
PPPLPPPPPPSP	0.782 ± 0.083
PPPLPPSSPTYS	0.646 ± 0.11
PPPLPRRPASPL	0.652 ± 0.014
PPPLPSPPAFRP	0.635 ± 0.045
PPPLPTPSLPPP	0.70185 ± 0.00011
PPPLPYKAPRIL	0.7068 ± 0.0036
PPPLRAPPLSLP	0.62 ± 0.0068
PPPPAPYRPPSC	0.682 ± 0.0054
PPPPATRPSPCY	0.706 ± 0.048
PPPPDHPRSSPV	0.688 ± 0.037
PPPPDPWTSPRP	0.734 ± 0.027
PPPPFSPPPPSA	0.7 ± 0.04
PPPPLLSPPSPP	0.714 ± 0.015
PPPPLPPIRPYP	0.719 ± 0.016
PPPPLPPQPPPP	0.654 ± 0.0073
PPPPLPPTPPPL	0.673 ± 0.025
PPPPPAPPPQPS	0.699 ± 0.011
PPPPPFSPLFLP	0.698 ± 0.12
PPPPPHSSPFRS	0.694 ± 0.01

Sequence	protein stability index
PPPPPHTPPPYP	0.766 ± 0.05
PPPPPIPPPLVP	0.658 ± 0.012
PPPPPLPPLPTP	0.693 ± 0.022
PPPPPLPPPSPP	0.598 ± 0.036
PPPPPLRVPPPP	0.6753 ± 0.004
PPPPPPAFPPST	0.716 ± 0.027
PPPPPPLITPPL	0.666 ± 0.052
PPPPPPLLPSPL	0.705 ± 0.069
PPPPPPLPPPLP	0.704 ± 0.056
PPPPPPLPPSPL	0.634 ± 0.1
PPPPPPPASLLP	0.755 ± 0.056
PPPPPPPFRPPT	0.651 ± 0.017
PPPPPPPLPLPP	0.64 ± 0.011
PPPPPPPLPRSP	0.721 ± 0.039
PPPPPPPPAPFP	0.687 ± 0.056
PPPPPPPPPLPR	0.657 ± 0.039
PPPPPPPPPQPS	0.67 ± 0.08
PPPPPPPPSPSP	0.742 ± 0.074
PPPPPPPTPIHP	0.72 ± 0.01
PPPPPPRPFPPP	0.66 ± 0.085
PPPPPPSVLSPP	0.722 ± 0.061
PPPPPPTPPPCL	0.694 ± 0.057
PPPPPRFSPHPP	0.695 ± 0.013
PPPPPRLPPRPP	0.6152 ± 0.0052
PPPPPRPPLSPP	0.725 ± 0.03
PPPPPSLACPPP	0.688 ± 0.037

Sequence	protein stability index
PPPPPSPPLSPI	0.728 ± 0.063
PPPPRAISPLLP	0.666 ± 0.031
PPPPRPLKLFPP	0.588 ± 0.014
PPPPRPLPPAPP	0.63 ± 0.075
PPPPRPPHLSPP	0.7006 ± 0.0067
PPPPRPPRPYSV	0.767 ± 0.27
PPPPRPSPSIYP	0.732 ± 0.018
PPPPRRPPPAPF	0.6935 ± 0.0022
PPPPRSLPLLPP	0.67 ± 0.073
PPPPSPRLSHSP	0.646 ± 0.018
PPPPYPPHPPSA	0.712 ± 0.027
PPPQDPTRRRRP	0.7116 ± 0.0054
PPPQPPPRHSPP	0.676 ± 0.031
PPPQSFLPRPPH	0.713 ± 0.0062
PPPRLPTSPDSP	0.722 ± 0.061
PPPRLSPTPSSR	0.721 ± 0.05
PPPRLTVPIPSS	0.6477 ± 0.0054
PPPRPDLTVGQP	0.654 ± 0.04
PPPRPLSPPFPF	0.641 ± 0.05
PPPRPPASLPSL	0.5833 ± 0.0033
PPPRPPPFPLSC	0.7134 ± 0.0065
PPPRPPSPPSFL	0.734 ± 0.041
PPPRRAPLSPSV	0.669 ± 0.042
